Here are results for 7 molecules from patent US6271440, “Plant regulatory proteins III” (The Australian National University).

In data set [1] the target is T1, GAMYB (OsGAMYB) (Oryza sativa) (UniProt Q0JIC2).
T1 sequence: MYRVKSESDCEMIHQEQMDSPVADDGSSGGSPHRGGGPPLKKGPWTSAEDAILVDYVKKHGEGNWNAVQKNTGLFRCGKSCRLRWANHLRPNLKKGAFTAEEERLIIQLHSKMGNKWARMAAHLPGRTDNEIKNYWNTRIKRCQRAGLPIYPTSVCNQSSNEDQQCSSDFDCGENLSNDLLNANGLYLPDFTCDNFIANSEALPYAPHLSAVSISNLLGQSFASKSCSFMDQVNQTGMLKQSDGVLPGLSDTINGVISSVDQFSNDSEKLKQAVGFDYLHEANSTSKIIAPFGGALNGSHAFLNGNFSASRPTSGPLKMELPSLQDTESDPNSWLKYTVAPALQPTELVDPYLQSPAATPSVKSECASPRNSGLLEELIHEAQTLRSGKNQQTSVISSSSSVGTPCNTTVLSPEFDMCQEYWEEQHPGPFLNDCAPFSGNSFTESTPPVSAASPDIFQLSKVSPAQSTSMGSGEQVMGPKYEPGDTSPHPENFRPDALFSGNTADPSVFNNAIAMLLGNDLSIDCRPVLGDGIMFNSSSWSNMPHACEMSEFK
The data set is described as follows: cell_activity. The following applies: GUS increase without GA versus empty Ubi1.cass effector.

Data set [2] concerns the target T2, GAMYB (HvGAMYB), GST fusion (Hordeum vulgare).
T2 chain: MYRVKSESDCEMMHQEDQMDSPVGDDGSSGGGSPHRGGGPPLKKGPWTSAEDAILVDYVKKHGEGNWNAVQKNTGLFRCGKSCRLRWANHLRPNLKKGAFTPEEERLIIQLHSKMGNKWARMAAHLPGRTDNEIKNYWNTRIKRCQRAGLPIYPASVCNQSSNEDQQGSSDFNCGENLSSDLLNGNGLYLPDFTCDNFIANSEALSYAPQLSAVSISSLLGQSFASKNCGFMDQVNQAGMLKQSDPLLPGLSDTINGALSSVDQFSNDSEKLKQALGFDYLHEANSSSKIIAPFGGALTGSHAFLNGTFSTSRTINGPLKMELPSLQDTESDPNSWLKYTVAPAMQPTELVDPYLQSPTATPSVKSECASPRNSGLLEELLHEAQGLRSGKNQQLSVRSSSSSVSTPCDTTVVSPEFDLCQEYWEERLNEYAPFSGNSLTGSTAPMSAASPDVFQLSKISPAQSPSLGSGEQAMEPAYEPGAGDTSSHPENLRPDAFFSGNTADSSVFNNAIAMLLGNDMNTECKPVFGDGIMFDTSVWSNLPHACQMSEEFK
Put plainly: EMSA; TAACAGAc; mutation had no effect on binding. The following applies: tags: N-terminal GST (pGEX), E. coli XL1-blue; label: 32P; 5' overhangs. As for the experimental part: (§1) After annealing the complementary oligonucleotides were 3' end-labelled using ^32P-dCTp and the Klenow fragment, and purified by electrophoresis on polyacrylamide gels. Bacterially-produced GAMYB fusion protein-oligonucleotide binding reactions were performed in 10 µl binding buffer (24 mM Hepes-KOH pH 7.9, 50 mM KCl, 0.5 mM EDTA, 0.5 mM dithiothreitol, 10% (v/v) glycerol) with 2 µg of poly(dI-dC)-poly(dI-dC), 150 ng of GAMYB fusion protein and 0.9 ng of a $^32$P-labelled oligonucleotide probe (40,000 cpm). After incubation at 20° C. for 10 min, the samples were run on a 6% (w/v) polyacrylamide gel containing 5% (v/v) glycerol, in 0.25 x Tris-borate-EDTA buffer at 140 volts. After electrophoresis, the gels were dried and autoradiographed.
(§2) To test whether GAMYB binds to the TAACAAA box in the high-pI α-amylase promoter, we performed gel-retardation experiments as described in Example 8. We looked for binding between an oligonucleotide probe (w) containing the amylase promoter sequence (−149 to −128), including the wild-type TAACAAA box and an affinity-purified glutathione-s-transferase (GST)-GAMYB fusion protein that had been expressed in Escherichia coil according to Example 7. […] Experiments were also performed using mutant oligonucleotide probes (m-1 to m-5).
(Mobility shift assays separate free from complexed probe on a gel.)

For data set [3], the target named is T2, GAMYB (HvGAMYB), GST fusion. Put plainly: EMSA; multi-bp mutation abolishes binding. The conditions noted are these: tags: N-terminal GST (pGEX), E. coli XL1-blue; label: 32P; 5' overhangs. As for the experimental part:
as §1, §2

Data set [4] shares this target. Put plainly: EMSA; single mutation TGACAAAc. The conditions noted are these: tags: N-terminal GST (pGEX), E. coli XL1-blue; label: 32P; 5' overhangs. The procedure:
as §1, §2

Data set [5] has the same target. Put plainly: EMSA; single mutation at 3' end of site. The following applies: tags: N-terminal GST (pGEX), E. coli XL1-blue; label: 32P; 5' overhangs. As for the experimental part: as §1, §2
The target is the same in data set [6]. The data set is described as follows: EMSA; 24 mM Hepes-KOH pH 7.9, 50 mM KCl, poly(dI-dC), 20 C; 100-fold cold w abolishes complex. The conditions noted are these: tags: N-terminal GST (pGEX), E. coli XL1-blue; label: 32P; 5' overhangs. The procedure:
as §1, §2

The target of data set [7] is Glutathione-S-transferase (GST control) (UniProt P08515 P08515:1-218). The data set is described as follows: EMSA; GST alone control. The conditions noted are these: tags: pGEX vector; label: 32P; 5' overhangs. As for the experimental part: as §1, §2
Glutathione-S-transferase (GST control), sequence (P08515 whole entry, one chain of several): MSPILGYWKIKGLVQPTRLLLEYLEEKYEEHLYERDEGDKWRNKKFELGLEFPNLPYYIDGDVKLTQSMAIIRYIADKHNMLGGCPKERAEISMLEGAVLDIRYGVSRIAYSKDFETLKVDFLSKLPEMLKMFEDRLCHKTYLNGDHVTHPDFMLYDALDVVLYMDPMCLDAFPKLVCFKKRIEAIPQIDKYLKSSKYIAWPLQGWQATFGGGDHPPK

With “Amy32b low-pI alpha-amylase promoter (mlo22)”, the activity in data set [1] was determined as 176 fold.

B1: m-3 (dsDNA)
DNA 1: GGCCGATAACAGACTCCGG
DNA 2: CCGGAGTCTGTTATCGGCC
With B1, in data set [2], the binding result is “binds”.

B2: m-1 (dsDNA)
DNA 1: GGCCGACTCGAGACTCCGG
DNA 2: CCGGAGTCTCGAGTCGGCC
With B2, the binding result in data set [3] is reported as “no binding”.

B3: m-2 (dsDNA)
DNA 1: GGCCGATGACAAACTCCGG
DNA 2: CCGGAGTTTGTCATCGGCC
Turning to B3, the binding result in data set [4] is on record as “no binding”.

B4: m-5 (dsDNA)
DNA 1: GGCCGATAACAAAATCCGG
DNA 2: CCGGATTTTGTTATCGGCC
Regarding B4, the binding result in data set [5] is reported as “no binding”.

B5: m-4 (dsDNA)
DNA 1: GGCCGATAACAAGCTCCGG
DNA 2: CCGGAGCTTGTTATCGGCC
Consider B5, for which the binding result in data set [5] is listed as “no binding”.

B6: w (dsDNA)
DNA 1: GGCCGATAACAAACTCCGG
DNA 2: CCGGAGTTTGTTATCGGCC
Consider B6, for which the binding result is recorded as “binds” in data set [6] and “no binding” in data set [7].
